Publication PMC4813479, “β-Subunit Binding Is Sufficient for Ligands to Open the Integrin αIIbβ3 Headpiece” (The Journal of Biological Chemistry, 2015)

Target: full-length human αIIbβ3 on CHO K1 cells (human) (UniProt P08514)

- EC50 of LIBS1 epitope exposure on CHO cells expressing αIIbβ3 (flow cytometry, 1 mM Mg2+ and 1 mM Ca2+): 0.21 mM
Substance: fibronectin hexapeptide GRGDSP
